{"source": "patent US7829109B2", "about": "“Catheter injectable depot compositions and uses thereof” (Durect Corporation, priority 2001, dated 2010)", "key": {"[1]": {"experiment": "Stability of PDGF in the depot formulations (rpHPLC, SEC)", "type": "physicochemical", "settings": "day 0", "procedure": "Depot gel PDGF formulations were stored for different periods of time at 5, 25 and 40° C., respectively. At predetermined time points, the depot gel PDGF-BB formulation (0.3 ml) was treated with a cooled organic solvent (a 50/50 mixture of methylene chloride/acetone, at 5° C., 3×3.0 ml). The resulting residual PDGF-BB was dissolved in a PBS buffer (2 ml, pH 7.4) and the purity of the PDGF was analyzed by both reverse phase HPLC (rpHPLC) and size exclusion chromatography (SEC) HPLC. FIGS. 18-20 illustrate the stability of PDGF (% monomer by SEC) in the various depot formulations, including those of the present invention, as a function of time at 5° C. (FIG. 18), 25° C. (FIG. 19) and 40° C. (FIG. 20), respectively. Table 12 summarizes the chemical stability of PDGF tested by rpHPLC in the various depot formulations, including those of the present invention, as a function of time at 5° C., 25° C. and 40° C., respectively. […] Sucrose has a significant stabilizing effect on the various depot formulations of the present invention."}, "[2]": {"experiment": "Preliminary stability of PDGF preformulations in the gel vehicle (SEC, rpHPLC)", "type": "physicochemical", "settings": "mixed into gel vehicle PLGA RG502/BB/BA 40/45/15, stored at 5° C. for 1 day", "procedure": "All lyophilized protein formulations as listed in Tables 8 and 9, were mixed into a gel vehicle with the composition of PLGA RG502/Benzyl Benzoate (BB)/benzyl alcohol (BA) of 40/45/15 with the loading of the protein formulation about 10 wt %. After being stored at 5° C. for 1 day, the mixtures were extracted with an organic solvent mixture of methylene chloride and acetone (ratio of 50/50) as described in the example 15 above. The purity of the PDGF-BB was analyzed by both reverse phase HPLC (rpHPLC) and size exclusion chromatography (SEC). In general, no distinguishable degradation of the PDGF-BB was found in the PDGF-BB formulation incorporated with the excipients as described in the example 18 and mixed with the gel vehicle of the present invention."}}, "data": [{"substance": "Bulk PDGF: PDGF-BB bulk solution, i.e., aqueous solution of PDGF in acetate buffer", "values": [{"measurement": "RP-HPLC Other Peak(s)", "setting": "[1]", "result": 0, "unit": "% Peak Area"}, {"measurement": "RP-HPLC Peak at (RRT = 0.93)", "setting": "[1]", "result": 11.1, "unit": "% Peak Area"}, {"measurement": "RP-HPLC Peak at (RRT = 1.00)", "setting": "[1]", "result": 87.7, "unit": "% Peak Area"}, {"measurement": "RP-HPLC Peak at (RRT = 1.09)", "setting": "[1]", "result": 1.2, "unit": "% Peak Area"}, {"measurement": "% PDGF dimer by SEC", "setting": "[2]", "result": 0.73, "unit": "%"}, {"measurement": "% PDGF monomer by SEC", "setting": "[2]", "result": 99.27, "unit": "%"}, {"measurement": "% other peaks by rp-HPLC", "setting": "[2]", "result": 0.0, "unit": "%"}, {"measurement": "% peak at RRT = 0.93 by rp-HPLC", "setting": "[2]", "result": 11.1, "unit": "%"}, {"measurement": "% peak at RRT = 1.00 by rp-HPLC", "setting": "[2]", "result": 87.7, "unit": "%"}, {"measurement": "% peak at RRT = 1.10 by rp-HPLC", "setting": "[2]", "result": 1.2, "unit": "%"}]}]}
